Columns and labels:
K8 (1-342) = molecular target: T1, K8 (1-342); test: Western blot of SDS-PAGE-separated K8 GST fusion proteins, stained with COU-1 alone
T1 construct: not shown: N-terminal GST and its linker (modified pGEX-2T)
T1 chain: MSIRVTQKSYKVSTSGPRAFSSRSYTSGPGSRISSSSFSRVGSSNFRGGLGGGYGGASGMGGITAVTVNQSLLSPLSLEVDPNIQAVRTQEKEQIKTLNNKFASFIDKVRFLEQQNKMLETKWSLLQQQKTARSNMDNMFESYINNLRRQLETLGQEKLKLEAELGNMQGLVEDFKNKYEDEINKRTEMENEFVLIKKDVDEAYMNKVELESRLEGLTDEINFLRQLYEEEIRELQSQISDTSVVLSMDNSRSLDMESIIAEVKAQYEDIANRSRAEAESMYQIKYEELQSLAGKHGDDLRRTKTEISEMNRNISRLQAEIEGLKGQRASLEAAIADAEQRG

K8 (1-383) = molecular target: T2, K8 (1-383); test: as above
T2 construct: not shown: N-terminal GST and its linker (modified pGEX-2T)
T2 chain: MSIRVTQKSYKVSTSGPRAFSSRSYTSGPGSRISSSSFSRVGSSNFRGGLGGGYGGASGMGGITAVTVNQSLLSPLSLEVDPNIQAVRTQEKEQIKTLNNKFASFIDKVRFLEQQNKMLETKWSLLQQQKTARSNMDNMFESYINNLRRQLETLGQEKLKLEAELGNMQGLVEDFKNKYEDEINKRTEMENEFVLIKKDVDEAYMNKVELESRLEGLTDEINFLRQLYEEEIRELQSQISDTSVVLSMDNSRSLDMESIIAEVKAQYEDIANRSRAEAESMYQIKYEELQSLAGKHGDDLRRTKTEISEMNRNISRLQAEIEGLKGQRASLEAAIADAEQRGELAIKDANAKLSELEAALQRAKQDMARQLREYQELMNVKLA

K8 (1-129) = molecular target: T3, K8 (1-129); test: as above
T3 construct: not shown: N-terminal GST carrier (modified pGEX-2T) and any linker
T3 chain: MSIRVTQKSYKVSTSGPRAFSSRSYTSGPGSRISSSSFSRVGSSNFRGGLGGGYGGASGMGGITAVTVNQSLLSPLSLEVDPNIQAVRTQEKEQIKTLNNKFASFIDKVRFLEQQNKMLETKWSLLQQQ

K8 (1-403) = molecular target: T4, K8 (1-403); test: as above
T4 construct: not shown: N-terminal GST and its linker (modified pGEX-2T)
T4 chain: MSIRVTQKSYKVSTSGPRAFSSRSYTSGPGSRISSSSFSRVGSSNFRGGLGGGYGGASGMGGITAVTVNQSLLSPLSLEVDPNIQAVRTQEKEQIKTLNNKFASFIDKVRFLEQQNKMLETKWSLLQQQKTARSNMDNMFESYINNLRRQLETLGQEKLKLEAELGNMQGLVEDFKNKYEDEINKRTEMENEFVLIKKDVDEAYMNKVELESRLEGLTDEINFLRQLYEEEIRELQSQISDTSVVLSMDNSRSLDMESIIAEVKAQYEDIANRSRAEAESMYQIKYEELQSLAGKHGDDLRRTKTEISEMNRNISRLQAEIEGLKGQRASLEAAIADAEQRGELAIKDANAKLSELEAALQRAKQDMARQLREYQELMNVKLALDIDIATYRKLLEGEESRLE

K8 (1-299) = molecular target: T5, K8 (1-299); test: as above
T5 construct: not shown: N-terminal GST and its linker (modified pGEX-2T)
T5 chain: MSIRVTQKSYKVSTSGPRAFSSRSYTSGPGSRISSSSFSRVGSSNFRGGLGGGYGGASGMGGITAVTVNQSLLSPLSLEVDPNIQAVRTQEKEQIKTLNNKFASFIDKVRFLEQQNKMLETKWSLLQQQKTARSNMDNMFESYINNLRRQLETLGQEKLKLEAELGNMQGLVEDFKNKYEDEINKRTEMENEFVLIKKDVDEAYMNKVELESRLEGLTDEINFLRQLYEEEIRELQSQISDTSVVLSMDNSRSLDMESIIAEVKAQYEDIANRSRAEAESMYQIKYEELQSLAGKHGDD

[1] = molecular target: T6, K18(1-213) GST fusion protein (human, UniProt P05783 2-214); test: Western blot of SDS-PAGE-separated K18 GST fusion proteins, stained with COU-1 alone
T6 construct: Alone, not complexed; not shown: glutathione S-transferase (GST) fusion partner, modified pGEX-2T vector
T6 sequence: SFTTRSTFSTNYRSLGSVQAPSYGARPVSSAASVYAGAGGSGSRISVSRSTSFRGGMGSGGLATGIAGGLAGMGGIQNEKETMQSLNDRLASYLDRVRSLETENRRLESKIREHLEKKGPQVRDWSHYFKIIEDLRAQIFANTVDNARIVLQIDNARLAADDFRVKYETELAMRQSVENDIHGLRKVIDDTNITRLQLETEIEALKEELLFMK

[2] = molecular target: T7, K18(1-385) GST fusion protein (human, UniProt P05783 2-386); test: as above
T7 construct: Alone, not complexed; not shown: glutathione S-transferase (GST) fusion partner, modified pGEX-2T vector
T7 sequence: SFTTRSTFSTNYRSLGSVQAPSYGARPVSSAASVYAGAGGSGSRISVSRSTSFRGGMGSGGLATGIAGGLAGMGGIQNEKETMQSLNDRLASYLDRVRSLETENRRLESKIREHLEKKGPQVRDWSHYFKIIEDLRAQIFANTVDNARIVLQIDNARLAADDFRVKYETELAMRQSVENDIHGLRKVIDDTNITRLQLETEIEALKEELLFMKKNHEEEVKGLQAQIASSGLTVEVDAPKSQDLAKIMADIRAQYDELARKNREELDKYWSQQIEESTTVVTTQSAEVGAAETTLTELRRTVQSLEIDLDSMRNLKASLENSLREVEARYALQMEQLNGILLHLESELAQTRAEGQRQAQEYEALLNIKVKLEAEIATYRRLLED

B1: human monoclonal IgM antibody COU-1 (antibody, V domains shown)
VH: GAEVKKPGASVKVSCKASDYTFSSYYMHWVRQAPGQGLEWMGIINPSGGSTSYAQKFQGRVTMTRDTSTNTVYMELSSLRSEDTAVYYCARDQVVVAATLSNYGMDVWGQGTTVTVSS
VL: ELTQSPGTLSLSPGERATLSCRASQSVSSSYLAWYQQKPGQAPRLLIYDASNRATGIPARFSGSGSGTDFTLTISSLEPEDFAVYYCQQGTNWGIAFGQGTRLDIKR
notes: Human IgM with kappa light chain, secreted by hybridoma B9165 (ECACC 87040201), purified from culture supernatant; also called HMab COU-1; HuMab COU-1
K8 (1-342)
  binding result: no binding (tested: 5 µg/ml COU-1 (P-0279))
K8 (1-383)
  binding result: no binding (tested: 5 µg/ml COU-1 (P-0279))
K8 (1-129)
  binding result: no binding (tested: 5 µg/ml COU-1 (P-0279))
K8 (1-403)
  binding result: no binding (tested: 5 µg/ml COU-1 (P-0279))
K8 (1-299)
  binding result: no binding (tested: 5 µg/ml COU-1 (P-0279))
[1]
  binding result: no binding (tested: 5 µg/ml COU-1 (P-0279))
[2]
  binding result: no binding (tested: 5 µg/ml COU-1 (P-0279))
